Test results from patent publication US10822723B2, “Fusion protein crystal comprising a moiety” (Agency for Science, Technology and Research, priority 2015, dated 2020).

Target: T1, PAK4cat (Homo sapiens, UniProt O96013)
T1 construct: PAK1 (1-545) and PAK4 (286-591), respectively; 6His (N); made in house; host or cells: Escherichia coli BL21-CodonPlus(DE3)
Test: In vitro kinase assay, phosphorylation of GST-Raf13 by PAK4cat
Format: biochemical
Details: in vitro, FIG. 1d
Description: Purified PAK1 or PAK4 (50 nM in 25-50 μl) were incubated with 10 μM GST-Raf1S338 peptide in 10 μM ATP (2 μCi of γ32P ATP) of kinase buffer (25 mM Hepes, pH 7.3, 0.1% Triton-X100, 50 mM KCl, 10 mM MgCl2, 1 mM DTT) at 30° C. for 20 min. Samples were analysed by SDS-polyacrylamide gel electrophoresis, or adsorption of the GST substrate mix onto PVDF membranes, followed by extensive washing to remove free γ32P-ATP. The synthetic peptides of 95% purity, as determined by HPLC and MS analyses (GenScript), were soluble in aqueous PBS. Stock solutions (10 mM) were quantified via calculated extinction coefficients and absorbance measurements at 280 nm and stored at −80° C. The diluted peptides were incubated at the indicated concentrations with the kinase on ice (10 min) before addition of γ32P ATP and subsequent incubation at 30° C. The synthetic peptide array (Jerini Biotools) was phosphorylated in situ as described previously.

T1 sequence (O96013 286-591): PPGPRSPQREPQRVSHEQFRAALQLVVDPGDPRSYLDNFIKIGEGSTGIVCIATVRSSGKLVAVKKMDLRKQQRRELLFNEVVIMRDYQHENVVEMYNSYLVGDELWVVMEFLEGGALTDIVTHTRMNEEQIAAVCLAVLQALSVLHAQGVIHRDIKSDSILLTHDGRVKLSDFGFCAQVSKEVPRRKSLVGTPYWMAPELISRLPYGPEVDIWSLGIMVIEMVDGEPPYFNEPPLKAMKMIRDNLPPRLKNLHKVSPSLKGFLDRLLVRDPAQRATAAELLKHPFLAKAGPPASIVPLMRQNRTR

B1: Inka1: human Inka1, endogenous protein inhibitor of PAK4 (protein)
chain: MDMHSARLDSFLSQLRWELLCGRDTGSPSMPGPLQPTSQTGPDVQPSHQLRASGALEEDSVCCVEEEEEEEEEAVVTEDRDAALGGPREHALDWDSGFSEVSGSTWREEELPVSQRPAPSAQPLRRQCLSVSGLPMPSRAPVASVPPVHHPRPKSTPDACLEHWQGLEAEDWTAALLNRGRSRQPLVLGDNCFADLVHNWMELPETGSEGGDGGGHRARARPPQFLLGLSEQLRRRLARARRTAMAGKRLSCPPRPEPELPADVSRFAALMSCRSRQPIICNDVS
modifications: left off: small tags and cut ends
- Ki: ~30 nM
